The source of these data is patent US20170306005A1 (NASCIENT, published 2017).

Where a chain is given by its changes, count along the chain named.

Test [1] deals with T1, dog tenascin-C rCD4-His-FBG (rat; dog, UniProt P05540 207-392, limits assumed).
T1 construct: domain: domains 3 and 4; C-terminal FBG fusion; also called Dog TNC; not shown: 6His tag
T1 sequence (chain (part 1 of 2)): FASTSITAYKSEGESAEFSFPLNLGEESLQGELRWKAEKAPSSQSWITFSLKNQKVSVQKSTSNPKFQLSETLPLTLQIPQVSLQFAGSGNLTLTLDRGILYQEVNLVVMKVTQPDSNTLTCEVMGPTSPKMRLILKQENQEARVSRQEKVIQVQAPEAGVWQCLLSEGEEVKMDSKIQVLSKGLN
T1 sequence (chain (part 2 of 2)): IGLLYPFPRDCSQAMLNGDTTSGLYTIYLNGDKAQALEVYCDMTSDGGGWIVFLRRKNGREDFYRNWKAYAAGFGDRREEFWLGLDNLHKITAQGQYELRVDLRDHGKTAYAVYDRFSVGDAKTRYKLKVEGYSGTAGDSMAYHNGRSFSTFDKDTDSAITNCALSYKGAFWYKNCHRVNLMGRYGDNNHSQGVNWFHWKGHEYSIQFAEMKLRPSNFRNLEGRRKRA
Briefly: SPR, captured purified IgG4, 37 C.

For test [2], the target named is T2, human tenascin-C rCd4-His-FBG (rat; human, UniProt P05540 207-392, limits assumed).
T2 construct: domain: domains 3 and 4; C-terminal FBG fusion; biotinylated in the ELISA and HTRF screens; also called Hu TNC; human TNC rCd4-His-FBG; not shown: 6His tag
T2 sequence (chain (part 1 of 2)): T1 sequence (chain (part 1 of 2))
T2 sequence (chain (part 2 of 2)): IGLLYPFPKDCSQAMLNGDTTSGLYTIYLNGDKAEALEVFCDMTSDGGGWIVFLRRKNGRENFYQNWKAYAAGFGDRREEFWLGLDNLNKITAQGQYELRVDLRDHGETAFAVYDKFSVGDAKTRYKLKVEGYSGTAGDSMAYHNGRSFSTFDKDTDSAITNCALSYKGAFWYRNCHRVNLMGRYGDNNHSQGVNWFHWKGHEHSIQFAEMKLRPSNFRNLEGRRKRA
The test is described as follows: SPR, captured purified IgG4, 37 C.

The target of test [3] is T3, rat tenascin-C rCd4-His-FBG (rat, UniProt P05540 207-392, limits assumed).
T3 construct: domain: domains 3 and 4; C-terminal FBG fusion; also called Rat TNC; rat TNC rCD4-His-FBG; not shown: 6His tag
T3 sequence (chain (part 1 of 2)): T1 sequence (chain (part 1 of 2))
T3 sequence (chain (part 2 of 2)): T1 sequence (chain (part 2 of 2)) with L29I, A34T, A72T, H89S, R104Q, K108E, T109S, T124S, A142N, F152Y
Briefly: SPR, captured purified IgG4, 37 C.

The target in test [4] is T4, human tenascin-R rCd4-His-FBG (rat; human, UniProt P05540 207-392, limits assumed).
T4 construct: domain: domains 3 and 4; C-terminal FBG fusion; also called Hu TNR; human TNR rCd4-His-FBG; not shown: 6His tag
T4 sequence (chain (part 1 of 2)): T1 sequence (chain (part 1 of 2))
T4 sequence (chain (part 2 of 2)): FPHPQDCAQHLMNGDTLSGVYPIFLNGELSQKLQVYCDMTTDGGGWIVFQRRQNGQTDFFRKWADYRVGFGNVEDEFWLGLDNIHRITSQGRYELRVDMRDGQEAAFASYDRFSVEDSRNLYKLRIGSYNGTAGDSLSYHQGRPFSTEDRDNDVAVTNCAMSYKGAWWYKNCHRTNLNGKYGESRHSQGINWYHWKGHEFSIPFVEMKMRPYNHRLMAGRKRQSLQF
Briefly: SPR off-rate screen, captured IgG4 supernatant, 25 C; off-rate screen, IgG4 in culture supernatant, 100 nM TNR antigen, 25 C. The protocol:
The 31 scFv of interest were sub-cloned into a human IgG4 expression vector for generation of antibodies as human IgG4 with a hinge-stabilising mutation (S241P; Angal et al, 1993). […] Briefly, surface plasmon resonance (SPR) experiments were performed using a BIAcore T100 instrument and followed the protocol according to the Human antibody capture kit protocol (GE, BR-1008-39). For off-rate screening, 10,000 response units (RU) of anti-human Fc IgG (GE, BR-1008-39) was immobilised on flow-cells (FC1 and FC2) of a Series 5 CM5 dextran sensor chip (BR-1005-30) using EDC/NHS cross-linking chemistry according to the amine coupling kit protocol (GE, BR-1000-50). Culture supernatants containing expressed IgG4 were diluted 1:2 with 2×PBS-T and injected into FC2 (flowrate 5 μl/min, 60 s contact time) to enable antibody capture at 25° C. […] A fixed concentration of antigen (15 nM of human and mouse TNC rCd4-His-FBG and 100 nM of human TNR rCd4-His-FBG) was injected with a flow-path via FC 1 (reference flow cell) and FC 2 (antibody capture flow cell), with a flow rate of 30 μl/min, and the association and dissociation phases measured over 1 and 5 min time periods, respectively. […] Off rates were determined by reference cell subtraction and fitting the sensogram experimental data assuming a 1:1 interaction using BIAevaluation software (GE, BR-1005-97).

B1: 165_13_C3 human IgG4 (antibody, V domains shown)
VH: QVQLVESGGGLVQPGRSLRLSCAASGFTFDDYAMHWVRQAPGKGLEWVSGISGSGGSTYYADSVKGRFTISRDNAKNSLYLQMNSLRAEDTALYYCAKSYQSDEDAFDIWGQGTMVTVSS
VL: DIQMTQSPASLPTPVGDRVTITCRASQYIQGFLNWYQQKPGKAPKLLIYDASNLETGVPSRFSGSGSGTDFTLTISSLQPEDFATYYCQQSYSTPQTFGQGTKVDIKR
notes: also called IgG4 C3; C3 IgG4 MAb
As for B1, the Kd in test [1] came to 1.8 nM; in test [2] it was 0.072 nM; in test [3] it was 1.22 nM. Also, the koff in test [1] amounted to 0.0108 s⁻¹; in test [2], 0.00083 s⁻¹; in test [3], 0.00473 s⁻¹; in test [4], 0.012 s⁻¹. Further, the on-rate (kon) is 5.97e+06 M⁻¹ s⁻¹ in test [1], 1.16e+07 M⁻¹ s⁻¹ in test [2] and 3.89e+06 M⁻¹ s⁻¹ in test [3].
